This note sets out measurements from patent US20090291088A1 (Biogen, published 2009).

Experiment [1] concerns the target T1, human IGF-1R expressed on cells (human, UniProt P08069 31-1367). The experiment is described as follows: cell-based or functional assay.
For experiment [2], the target named is T2, murine IGF-1R expressed on cells (mouse, UniProt Q60751 31-1373).
T2 construct: whole, on cells; also called mouse IGF-1R
The experiment is described as follows: binding to CHO transfectants.

The target in experiment [3] is T3, human IGF-1R(1-902)-His10 (human, UniProt P08069 31-932).
T3 construct: Cy5-labelled in tr-FRET; also called hIGF-1R-His10; IGF-1R-His
The experiment is described as follows: SPR, antibody over captured IGF-1R-10His. How it is done: All surface plasmon resonance (SPR) experiments were performed on a Biacore 3000 set to 25° C. using HBS-EP (Biacore, Cat. No. BR-1001-88) as the running buffer. A biotin-labeled anti-HisTag antibody (biotin-PENTA-His, Qiagen Cat. No. 34440) was immobilized to saturation on a Biacore SA chip (Cat. No. BR-1000-32) surface by injection at 500 nM in HBS-EP buffer. […] Subsequent to IGF-1R injections, flow rates were increased to 20 μL/min. A second, 130 μL injection of anti-IGF-1R antibody or Fab was performed to investigate interactions with the receptor. Each antibody and Fab was serially diluted from 64 nM to 0.5 nM to obtain concentration dependent kinetic binding curves. Each injection series was regenerated using 3×10 μL injections of 10 mM Acetate, pH 4.0, at 20 μL/min. Each curve was double referenced using (1) data obtained from a streptavidin surface devoid of IGF-1R and (2) data from a primary injection of IGF-1R followed by a secondary injection of HBS-EP buffer. The concentration series for each antibody and Fab was fit to the 1:1 binding model provided within the BiaEvaluation software of the manufacturer.
The rates at which the antibodies accumulate on the IGF-1R coated surface when applied at various concentrations as well as the rates at which they dissociated during applications of pure buffer were investigated by fitting the data to a 1:1 binding model. Approximate kinetic rate constants and equilibrium dissociation constant were calculated (Table 14).
A general note: In SPR one partner is held on a chip, and binding of the other changes the refractive index at the surface.

For experiment [4], the target named is T4, human IGF-1R(1-903)-Fc (human, UniProt P08069 31-933).
T4 construct: Made by Biogen Idec; Multimerises through IGF-1R and Fc; also called hIGF-1R-Fc; IGF-1R-Fc; not shown: C-terminal human IgG1-Fc tag
The experiment in a line: ELISA on hIGF-1R-Fc, competitor biotinylated M13-C06. (ELISA stands for enzyme-linked immunosorbent assay.)

The target of experiment [5] is T5, Rhesus IGF-1R expressed on CHO cells (rhesus monkey, UniProt I2CWY3 31-1367).
T5 construct: whole, on cells; also called Rhesus IGF-1R/CHO
T5 sequence (I2CWY3 entry or part of it): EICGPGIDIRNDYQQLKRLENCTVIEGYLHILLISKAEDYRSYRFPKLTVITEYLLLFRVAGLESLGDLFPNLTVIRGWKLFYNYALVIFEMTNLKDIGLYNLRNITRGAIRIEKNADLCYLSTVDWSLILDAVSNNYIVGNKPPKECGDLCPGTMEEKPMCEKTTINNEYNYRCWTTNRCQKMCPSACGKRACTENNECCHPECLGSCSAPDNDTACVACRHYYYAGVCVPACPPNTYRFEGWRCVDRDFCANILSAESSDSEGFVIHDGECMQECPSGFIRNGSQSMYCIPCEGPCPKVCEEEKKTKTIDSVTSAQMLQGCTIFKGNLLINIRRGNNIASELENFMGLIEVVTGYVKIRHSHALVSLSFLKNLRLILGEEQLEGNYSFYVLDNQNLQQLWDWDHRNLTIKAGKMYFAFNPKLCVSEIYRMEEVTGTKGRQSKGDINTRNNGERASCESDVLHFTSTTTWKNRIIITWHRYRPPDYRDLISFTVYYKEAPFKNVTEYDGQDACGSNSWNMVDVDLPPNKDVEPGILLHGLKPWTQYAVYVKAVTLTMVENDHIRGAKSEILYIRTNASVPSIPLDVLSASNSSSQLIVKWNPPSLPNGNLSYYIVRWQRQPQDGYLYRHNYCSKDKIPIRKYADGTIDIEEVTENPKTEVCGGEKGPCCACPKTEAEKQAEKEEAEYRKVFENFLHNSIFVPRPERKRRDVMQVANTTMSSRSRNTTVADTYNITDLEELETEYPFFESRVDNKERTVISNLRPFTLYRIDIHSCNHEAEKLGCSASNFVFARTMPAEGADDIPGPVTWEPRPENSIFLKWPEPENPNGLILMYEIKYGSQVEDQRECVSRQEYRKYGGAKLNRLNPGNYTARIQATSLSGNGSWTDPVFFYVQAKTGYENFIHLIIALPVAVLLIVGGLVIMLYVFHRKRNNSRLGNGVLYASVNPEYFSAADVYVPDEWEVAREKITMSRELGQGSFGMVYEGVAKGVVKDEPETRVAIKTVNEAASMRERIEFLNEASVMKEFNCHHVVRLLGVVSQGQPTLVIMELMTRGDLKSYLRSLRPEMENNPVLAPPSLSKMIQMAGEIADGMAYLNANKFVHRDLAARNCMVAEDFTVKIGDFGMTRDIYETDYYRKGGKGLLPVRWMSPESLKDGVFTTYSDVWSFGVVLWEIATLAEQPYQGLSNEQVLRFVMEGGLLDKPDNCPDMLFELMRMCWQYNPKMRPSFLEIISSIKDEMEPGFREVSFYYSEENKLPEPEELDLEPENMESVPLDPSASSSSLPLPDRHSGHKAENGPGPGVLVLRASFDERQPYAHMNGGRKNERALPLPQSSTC
The experiment in a line: flow cytometry and confocal microscopy, CHO transfectants. For orientation: In flow cytometry, cells or beads pass a laser one at a time.

Experiment [6] concerns the target T4, human IGF-1R(1-903)-Fc. The experiment is described as follows: ELISA, plate coated with soluble IGF-1 receptor Fc fusion protein, detection with anti-human kappa-HRP. How it is done:
The plate was washed with phosphate-buffered saline (PBS, Irvine Scientific, Cat#9240), pH 7.4 plus 0.025% Tween 20 in the Skan Washer 300 (Skatron Instruments), blocked with buffer containing 1% nonfat milk, 0.05% Tween 20 in PBS, pH 7.4, and then incubated at room temperature for 1 hour. After incubation plate was washed with PBS plus 0.025% Tween 20 in the Skan Washer 300. […] Following a one hour incubation at room temperature, plate was washed with PBS plus 0.025% Tween 20 in the Skan Washer 300. […] Plate incubated for 1 hour at room temperature was washed with PBS plus 0.025% Tween 20 in the Skan Washer 300. […] The absorbance was measured at 450 nm, background 540 nm for TMB using the Molecular Devices plate reader. Data was analyzed using the SOFTMAX PRO software package version 4.3 LS (Molecular Devices Corp.).

The target in experiment [7] is T4, human IGF-1R(1-903)-Fc. The experiment in a line: competition ELISA: biotinylated hIGF-1R-Fc on streptavidin plate, 320 nM human IGF-1 His, detection with anti-His-HRP; blocked ligand human IGF-1 His. How it is done: hIGF-1R-Fc was biotinylated using EZ-Link Sulfo-NHS-LC-Biotin according to the protocol provided by the manufacturer (Pierce Cat. No. 21335). Biotinylated human IGF-1R-Fc at 5 μg/ml was added to the wells of SigmaScreen streptavidin-coated 96-well plates (Sigma, Cat. No. M5432-5EA; Sigma-Aldrich Corp. (St. Louis, Mo., USA)) at 100 μL/well and incubated overnight at 2-8° C. The plates were then washed four times with 200 μL/well PBST. […] The dilutions were added to the plates in duplicate at 100 μL/well and the plates were incubated at RT for 1 hour. The plates were then washed four times with 200 μL/well PBST. An HRP-conjugated anti-Histag antibody (Penta-His HRP Conjugate, QIAGEN, Cat. No. 1014992) was diluted 1:1000 in PBST and added to plates at 100 μL/well, and the plates were incubated at RT for one hour. The plates were then washed four times with 200 μL/well PBST. SureBlue Reserve TMB Microwell Peroxidase Substrate (KPL, Cat. No. 53-00-01) was added to plates at 100 μL/well followed by 1% phosphoric acid at 100 μL/well once the desired reaction was observed. The absorbance of each well was determined at 450 nm, and the results were normalized and plotted against the log of antibody concentration.

The target in experiment [8] is T4, human IGF-1R(1-903)-Fc. The experiment is described as follows: competition ELISA: biotinylated hIGF-1R-Fc on streptavidin plate, 320 nM human IGF-2 His, detection with anti-His-HRP; blocked ligand human IGF-2 His.
The target in experiment [9] is T6, human INSR(28-956)-His10 (human, UniProt P06213 28-956).
T6 construct: range 28-956; Bought (R&D Systems 1544-IR); also called rh-INSR; soluble insulin receptor
The experiment is described as follows: ELISA on coated rh-INSR. How it is done: (§1) ELISA assays were performed to determine specific binding of the Fab fragment antibodies to soluble IGF-1R over the insulin receptor. […] Color development was stopped by addition of 4NH₂SO₄ and optical density is measured at 450 nm using a Molecular Devices plate reader and binding curves are generated.

Experiment [10] deals with T1, human IGF-1R expressed on cells. The experiment in a line: flow cytometry, MCF-7 cells. How it is done:
The ability of Fabs to bind to the wild type IGF-1R was determined by flowcytometry using MCF-7 tumor cell line.
MCF-7 cells (Human Breast Adenocarcinoma from NCI) were split 24 hours prior to the setup of the assay to obtain 70% confluent monolayer. Routinely, MCF-7 cell line was maintained within 20 passages. Cells were lifted with cell dissociation buffer (Gibco catalog #13151-014), counted, washed and adjusted to 1×10⁶ cells/ml and one ml of cells were then added to each tube (12×75 mm tube Falcon catalog# 352054). Cells were pelleted and supernatant removed by centrifugation at 1200 rpm for 5 min and 100 μl of diluted antibodies were then added to the cell pellet. Purified Fabs were tested at a starting concentration of either 210 or 60 μg/ml with 1:3 dilutions in FACS buffer, down to 0.001 μg/ml. FACS buffer used throughout the assay was PBS (without Ca++/Mg++) containing 1% BSA (Sigma catalog# A-7906; Sigma-Aldrich Corp. (St. Louis, Mo., USA)) and 0.1% Sodium Azide (Sigma catalog #S2002). […] Samples were allowed to incubate on ice for 1 hour and 15 minutes then were washed with 2 ml FACS buffer and centrifuged at 1200 rpm for 5 minutes at 4° C. The supernatant was aspirated and 100 μl of the secondary detection antibody was added to each corresponding tube in FACS buffer. Samples were then incubated for 30 minutes on ice, in the dark. Cells were washed as described above, then, re-suspended in […] FACS buffer per tube/sample.
Cells were stained for live cell determination with Propidium Iodide staining solution (PI for dead cell exclusion; BD Pharmingen catalog# 51-66211E or 556463; use at 1:500 final in FACS buffer). Samples were run on the FACSCalibur instrument (Becton Dickinson) with 10,000 live events collected per sample.

Experiment [11] deals with T6, human INSR(28-956)-His10. The experiment in a line: ELISA, plate coated with rh-INSR. How it is done: as §1
The target of experiment [12] is T3, human IGF-1R(1-902)-His10. The experiment is described as follows: ELISA, plate coated with rh-IGF-1R, bound Fab detected with anti-human kappa-HRP. How it is done: as §1

The Kd is the free concentration of one partner at which half of the binding sites on the other are occupied at equilibrium, for simple one-to-one binding. A lower Kd goes with tighter binding. A word on the koff: it is a measure of how fast the partners let go of each other. Read a high koff as fast dissociation. By kon is commonly meant a measure of how fast the partners come together. High values mean fast association, low ones slow association. The EC50 (read off the curve) is the midpoint of the concentration-response curve. The low end stands for greater potency, the high end for weaker potency. The EC50 is the concentration at which the effect is half-maximal. Read a low EC50 as a more potent agent.

T2 sequence (Q60751 31-1373): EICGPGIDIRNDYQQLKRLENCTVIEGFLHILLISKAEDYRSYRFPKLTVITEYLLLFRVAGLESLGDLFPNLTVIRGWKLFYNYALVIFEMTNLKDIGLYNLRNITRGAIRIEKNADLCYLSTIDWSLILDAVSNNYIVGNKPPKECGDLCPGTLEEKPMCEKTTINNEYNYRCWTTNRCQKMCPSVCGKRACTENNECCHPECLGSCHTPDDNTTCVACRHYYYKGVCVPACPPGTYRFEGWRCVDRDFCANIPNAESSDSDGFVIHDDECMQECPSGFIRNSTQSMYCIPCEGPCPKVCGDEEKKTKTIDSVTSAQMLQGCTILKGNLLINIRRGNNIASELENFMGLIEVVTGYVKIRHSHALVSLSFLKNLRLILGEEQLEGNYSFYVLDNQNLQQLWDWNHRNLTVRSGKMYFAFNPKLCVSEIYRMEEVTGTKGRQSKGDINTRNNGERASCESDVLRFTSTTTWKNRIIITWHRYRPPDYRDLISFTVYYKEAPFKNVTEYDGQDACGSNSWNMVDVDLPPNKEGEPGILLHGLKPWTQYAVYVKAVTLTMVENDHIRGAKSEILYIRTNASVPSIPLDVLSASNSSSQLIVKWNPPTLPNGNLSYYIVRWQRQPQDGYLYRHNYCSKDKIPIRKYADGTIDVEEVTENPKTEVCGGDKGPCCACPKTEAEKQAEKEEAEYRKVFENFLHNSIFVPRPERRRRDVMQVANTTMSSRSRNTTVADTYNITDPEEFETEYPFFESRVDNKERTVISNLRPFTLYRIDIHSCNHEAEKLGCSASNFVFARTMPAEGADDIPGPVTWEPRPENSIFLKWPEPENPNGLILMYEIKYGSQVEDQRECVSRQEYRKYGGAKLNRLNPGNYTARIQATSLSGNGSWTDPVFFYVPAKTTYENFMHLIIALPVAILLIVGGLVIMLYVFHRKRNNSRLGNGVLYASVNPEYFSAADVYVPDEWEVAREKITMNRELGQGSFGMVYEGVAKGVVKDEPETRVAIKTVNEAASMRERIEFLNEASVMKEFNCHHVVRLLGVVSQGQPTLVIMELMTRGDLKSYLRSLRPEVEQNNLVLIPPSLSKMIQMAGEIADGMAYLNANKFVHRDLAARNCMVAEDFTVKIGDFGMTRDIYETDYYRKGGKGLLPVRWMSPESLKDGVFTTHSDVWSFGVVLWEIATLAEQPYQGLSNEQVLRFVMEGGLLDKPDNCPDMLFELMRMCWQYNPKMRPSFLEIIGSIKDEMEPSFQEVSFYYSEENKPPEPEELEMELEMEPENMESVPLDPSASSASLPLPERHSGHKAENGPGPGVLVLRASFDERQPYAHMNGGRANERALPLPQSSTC

B1: M14-C03.G4.P.agly (antibody, human IgG4 S228P, kappa, V domains shown)
VH: EVQLLESGGGLVQPGGSLRLSCAASGFTFSKYMMSWVRQAPGKGLEWVSYISPSGGLTWYADSVKGRFTISRDNSKNTLYLQMNSLRAEDTAVYYCARDGARGYGMDVWGQGTTVTVSS
VL: DIQMTQSPATLSLSPGERATLSCRASQSVSSYLAWYQQKPGQAPRLLIYDASNRATGIPARFSGSGSGTDFTLTISSLEPEDFAVYYCQQRSNWPPEVTFGPGTKVDIKR
notes: Full-length human aglycosylated IgG4.P, kappa; Places that say only 'M14-C03 antibody' were assigned to this version; also called M14-C03_Ab
Turning to B1, the “inhibition of IGF-1 and IGF-2 mediated IGF-1R receptor phosphorylation (EC50)” value in experiment [1] was under 1 nM. In [2], the binding result is on record as “binds”. In addition, in [3], the affinity, expressed as Kd, was 0.36 nM; the koff was determined as 0.0002 s⁻¹; the kon is 570000 M⁻¹ s⁻¹. For the same molecule, the “percent competition (relative to self-competition)” value in [4] was 90 to 100%. Moreover, the binding result in experiment [5] is reported as “binds”. The concentration giving a half-maximal response (EC50 (read off the curve)) in experiment [6] is about 0.07 nM. Besides, in experiment [7], the “IC50 (read off the curve)” value is about 5 nM. Further, in experiment [8], the “IC50 (read off the curve)” value was about 1 nM.

B2: M12-E01 Fab (Fab, V domains shown)
VH: EVQLLESGGGLVQPGGSLRLSCAASGFTFSPYSMLWVRQAPGKGLEWVSSIGSSGGSTRYADSVKGRFTISRDNSKNTLYLQMNSLRAEDTAMYYCARVRGILHYDILIGRNLYYYYMDVWGKGTTVTVSS
VL: QYELTQPPSVSEAPRQRVTISCSGSSSNIGNNAINWYQQLPGKPPKLLIYYDDLLPSGVSDRFSGSKSGTSGSLAISGLQSEDEADYYCAAWDDNLNGVIFGGGTKLTVL
Take B2: in [9], the binding result is reported as “no binding (tested: 2 µM-0.2 nM)”.

B3: M14-B01 Fab (Fab, V domains shown)
VH: EVQLLESGGGLVQPGGSLRLSCAASGFTFSNYHMAWVRQAPGKGLEWVSVISPTGGRTTYADSVKGRFTISRDNSKNTLYLQMNSLRAEDTATYYCARAGYSYGYGYFDYWGQGTLVTVSS
VL: DIQMTQFPATLSVSPGERATLSCRASQSVMRNLAWYQQKPGQPPRLLIYGASKRATGIPARFSGSGSGTAFTLTISNLEPEDFAVYYCHQRSTWPLGTFGPGTKLEAK
notes: Human phage Fab, kappa
For B3, the EC50 in experiment [10] was determined as 29.4 nM. Besides, in [11], the binding result is reported as “no binding (tested: about 20000 nM)”. Besides, the “EC50 (read off the curve)” value in [12] was about 6 nM.
